From patent US20050058645A1

Key:
[1] = target: T1, FLAG-tagged IL-4Rα-gp130 chimeric receptor; test: cell-based or functional assay
T1 sequence: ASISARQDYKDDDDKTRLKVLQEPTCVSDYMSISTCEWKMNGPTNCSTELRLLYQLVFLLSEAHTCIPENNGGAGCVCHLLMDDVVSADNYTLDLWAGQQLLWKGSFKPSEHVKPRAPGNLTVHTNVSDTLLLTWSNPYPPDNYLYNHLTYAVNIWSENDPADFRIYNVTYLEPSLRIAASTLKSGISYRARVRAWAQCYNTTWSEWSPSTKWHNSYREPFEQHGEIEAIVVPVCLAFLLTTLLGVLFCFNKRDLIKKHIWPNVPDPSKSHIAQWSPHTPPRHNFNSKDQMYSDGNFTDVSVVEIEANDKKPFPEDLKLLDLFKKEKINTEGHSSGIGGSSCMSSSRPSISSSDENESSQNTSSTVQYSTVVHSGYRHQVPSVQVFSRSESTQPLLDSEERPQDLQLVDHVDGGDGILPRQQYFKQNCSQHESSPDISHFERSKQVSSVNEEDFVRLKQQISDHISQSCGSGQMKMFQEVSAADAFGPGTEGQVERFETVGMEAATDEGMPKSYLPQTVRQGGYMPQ

[2] = target: FLAG-tagged IL-13Rα1-gp130 chimeric receptor (human); test: cell-based or functional assay

IL-4 (species not stated) (ligand), sequence (P05112 25-153): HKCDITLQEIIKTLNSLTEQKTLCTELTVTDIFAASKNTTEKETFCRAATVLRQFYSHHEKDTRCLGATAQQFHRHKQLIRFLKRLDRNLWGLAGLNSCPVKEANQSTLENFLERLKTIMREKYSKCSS

50% of maximal activity, STAT-3 luciferase reporter, lines 3.1.2 and 3.2.4 [1] | 50% of maximal activity, STAT-3 luciferase reporter, lines 3.1.2 and 3.2.4 [2] | Substance
2 to 4 ng/mL | – | IL-4 (species not stated) (ligand)
– | 100 to 200 pg/mL | IL-13 (species not stated) (ligand)
